Consider one molecule from patent publication US20220332804A1 (CSL INNOVATION, published 2022).

Assay in all cases: SPR, antibody captured, C2 as analyte;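 note: biacore SPR at 37 °C, anti-C2 mAbs captured via goat anti-human IgG on CM5 chips, double-referenced sensorgrams fit to a 1:1 kinetic or steady-state model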
Background: In SPR one partner is held on a chip, and binding of the other changes the refractive index at the surface.

Assay [1] has as its target T1, human C2 V418A (human, UniProt P06681 21-752).
T1 sequence: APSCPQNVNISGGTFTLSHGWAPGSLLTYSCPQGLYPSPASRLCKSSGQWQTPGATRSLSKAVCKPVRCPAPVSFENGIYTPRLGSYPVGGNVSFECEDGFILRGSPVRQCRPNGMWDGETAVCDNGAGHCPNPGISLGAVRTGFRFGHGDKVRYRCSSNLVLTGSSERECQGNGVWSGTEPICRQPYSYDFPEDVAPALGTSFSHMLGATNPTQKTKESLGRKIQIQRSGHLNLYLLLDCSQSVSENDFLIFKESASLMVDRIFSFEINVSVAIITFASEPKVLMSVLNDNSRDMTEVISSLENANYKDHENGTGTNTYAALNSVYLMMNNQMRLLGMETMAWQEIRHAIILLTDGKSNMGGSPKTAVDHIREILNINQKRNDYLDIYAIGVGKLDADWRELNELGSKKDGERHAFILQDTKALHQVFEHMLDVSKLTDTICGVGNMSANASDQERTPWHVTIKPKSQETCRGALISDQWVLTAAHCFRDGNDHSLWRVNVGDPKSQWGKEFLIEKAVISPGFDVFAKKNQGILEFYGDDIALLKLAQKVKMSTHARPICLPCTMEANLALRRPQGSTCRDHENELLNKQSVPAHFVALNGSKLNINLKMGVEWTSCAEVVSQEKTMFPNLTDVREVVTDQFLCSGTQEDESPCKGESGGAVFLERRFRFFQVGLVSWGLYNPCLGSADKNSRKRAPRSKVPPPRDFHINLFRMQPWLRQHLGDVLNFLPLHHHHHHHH
Method: (§1) Surface plasmon resonance (SPR, Biacore) was used for all binding affinity analyses. In brief, goat anti-human IgG was directly immobilised onto the carboxymethyl dextran surface of CM5 sensorchips to approximately 12,000 RU using standard NHS/EDC chemistry at pH 5. The immobilised antibody surface was pre-conditioned with ten injections of polyclonal human IgG (Privigen 60 s) prepared at 1 μg/mL. Ligands (anti-C2 mAbs) were captured at the beginning of each cycle as described below. An adjacent spot or flow cell in which only Polyclonal IgG was capture was used as a reference surface. The goat anti-human IgG Fc antibody surface was regenerate in 100 mM H3PO4, injected for 45 seconds at the end of each cycle. Experiments were performed at 37° C. and the flow rate of each experiment was kept constant at 30 μL/min.
(§2) Sensogram data was double-referenced against a reference anti-IgG surface (i.e. minus anti-C2 mAb) and blank buffer injections obtained within each experiment. The binding data was fit to 1:1 (kinetic or steady-state) model using local Rmax and null refraction index (RI=0) when appropriate. Buffers and solutions were filtered (0.22 μm) prior to use.

The target of assay [2] is T2, human C2 S473A (human, UniProt P06681 21-752).
T2 sequence: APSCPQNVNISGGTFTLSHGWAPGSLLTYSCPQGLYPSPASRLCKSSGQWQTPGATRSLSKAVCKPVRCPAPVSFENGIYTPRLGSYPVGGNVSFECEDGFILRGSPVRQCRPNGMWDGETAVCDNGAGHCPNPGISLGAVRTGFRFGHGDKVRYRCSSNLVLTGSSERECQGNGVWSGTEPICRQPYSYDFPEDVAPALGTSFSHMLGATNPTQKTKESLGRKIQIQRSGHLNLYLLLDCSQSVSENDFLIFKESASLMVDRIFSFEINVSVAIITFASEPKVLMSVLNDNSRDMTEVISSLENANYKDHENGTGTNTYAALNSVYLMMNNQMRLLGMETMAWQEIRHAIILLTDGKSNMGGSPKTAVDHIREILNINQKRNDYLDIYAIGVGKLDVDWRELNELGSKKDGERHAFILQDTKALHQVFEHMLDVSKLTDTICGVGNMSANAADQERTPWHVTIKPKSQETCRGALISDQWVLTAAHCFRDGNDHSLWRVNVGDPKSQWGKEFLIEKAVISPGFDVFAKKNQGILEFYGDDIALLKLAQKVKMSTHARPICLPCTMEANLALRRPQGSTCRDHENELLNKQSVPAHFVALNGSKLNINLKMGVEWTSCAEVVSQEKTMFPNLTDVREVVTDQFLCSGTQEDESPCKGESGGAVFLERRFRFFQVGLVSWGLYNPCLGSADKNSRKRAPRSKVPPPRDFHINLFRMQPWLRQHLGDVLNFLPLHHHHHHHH
Method: as §1, §2

Assay [3] addresses T3, human C2 T483A (human, UniProt P06681 21-752).
T3 sequence: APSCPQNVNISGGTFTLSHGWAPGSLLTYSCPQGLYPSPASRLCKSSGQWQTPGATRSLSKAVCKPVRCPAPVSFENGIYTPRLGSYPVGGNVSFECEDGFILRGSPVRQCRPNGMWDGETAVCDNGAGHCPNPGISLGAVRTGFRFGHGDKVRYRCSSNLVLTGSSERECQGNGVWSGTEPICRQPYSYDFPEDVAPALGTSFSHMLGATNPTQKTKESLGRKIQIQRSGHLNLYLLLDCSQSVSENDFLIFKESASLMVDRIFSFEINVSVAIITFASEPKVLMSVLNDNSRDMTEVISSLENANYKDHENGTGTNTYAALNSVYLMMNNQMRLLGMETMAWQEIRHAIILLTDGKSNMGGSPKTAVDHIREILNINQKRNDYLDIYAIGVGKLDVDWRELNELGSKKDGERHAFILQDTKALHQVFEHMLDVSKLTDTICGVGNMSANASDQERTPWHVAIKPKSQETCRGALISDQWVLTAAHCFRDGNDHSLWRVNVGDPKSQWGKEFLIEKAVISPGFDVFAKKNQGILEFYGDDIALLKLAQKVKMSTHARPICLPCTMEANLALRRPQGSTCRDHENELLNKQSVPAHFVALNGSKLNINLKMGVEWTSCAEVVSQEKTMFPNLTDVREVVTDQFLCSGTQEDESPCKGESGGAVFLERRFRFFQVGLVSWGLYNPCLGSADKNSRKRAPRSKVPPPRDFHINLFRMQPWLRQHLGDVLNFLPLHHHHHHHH
Method: as §1, §2

Assay [4] addresses T4, human C2 Q489A (human, UniProt P06681 21-752).
T4 sequence: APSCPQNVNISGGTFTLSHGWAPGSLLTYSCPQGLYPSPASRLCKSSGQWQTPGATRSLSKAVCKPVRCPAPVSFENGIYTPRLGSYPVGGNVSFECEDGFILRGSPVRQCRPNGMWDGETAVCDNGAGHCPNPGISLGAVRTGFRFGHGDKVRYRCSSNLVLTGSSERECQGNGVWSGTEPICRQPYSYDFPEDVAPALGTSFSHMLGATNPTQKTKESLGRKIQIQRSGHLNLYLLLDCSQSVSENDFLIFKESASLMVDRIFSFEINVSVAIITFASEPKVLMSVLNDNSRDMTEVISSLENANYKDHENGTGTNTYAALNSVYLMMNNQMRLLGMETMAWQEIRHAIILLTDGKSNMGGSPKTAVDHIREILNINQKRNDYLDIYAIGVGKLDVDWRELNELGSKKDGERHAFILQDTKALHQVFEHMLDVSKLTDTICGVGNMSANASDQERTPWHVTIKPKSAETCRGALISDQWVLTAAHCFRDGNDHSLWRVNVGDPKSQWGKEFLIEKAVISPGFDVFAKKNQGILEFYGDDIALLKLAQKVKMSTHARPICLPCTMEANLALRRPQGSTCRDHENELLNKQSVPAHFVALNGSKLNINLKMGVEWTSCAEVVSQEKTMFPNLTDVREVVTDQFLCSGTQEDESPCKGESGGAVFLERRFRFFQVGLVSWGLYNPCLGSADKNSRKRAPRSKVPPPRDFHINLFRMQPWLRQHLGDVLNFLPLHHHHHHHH
Method: as §1, §2

B1: RF16-226 (antibody, human IgG4 S228P, lambda)
heavy: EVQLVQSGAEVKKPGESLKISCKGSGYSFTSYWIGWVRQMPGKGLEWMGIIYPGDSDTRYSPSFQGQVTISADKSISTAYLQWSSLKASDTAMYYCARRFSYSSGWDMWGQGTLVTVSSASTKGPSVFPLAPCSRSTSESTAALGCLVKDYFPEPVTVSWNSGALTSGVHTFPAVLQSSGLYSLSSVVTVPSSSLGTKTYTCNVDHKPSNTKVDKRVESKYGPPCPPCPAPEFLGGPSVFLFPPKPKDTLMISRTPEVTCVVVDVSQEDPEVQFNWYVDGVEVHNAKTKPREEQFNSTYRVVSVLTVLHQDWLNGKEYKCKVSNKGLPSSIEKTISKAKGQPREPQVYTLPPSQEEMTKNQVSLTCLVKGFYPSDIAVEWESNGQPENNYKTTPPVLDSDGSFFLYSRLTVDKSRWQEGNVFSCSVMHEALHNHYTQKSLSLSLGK
light: SYELTQPPSVSVSPGQTARITCSGDALTSKYVAWYQQKSGLAPLLVIYEDTRRPSGIPAKFSGSSSGSVATLTISGAHGDDEADYYCYSTDASGHQRVFGGGTKLTVLSQPKAAPSVTLFPPSSEELQANKATLVCLISDFYPGAVTVAWKADGSPVKAGVETTKPSKQSNNKYAASSYLSLTPEQWKSHRSYSCQVTHEGSTVEKTVAPTECS
notes: pH-dependent anti-C2 antibody from a phage display library; also called WT
Usually Kd stands for the concentration at which binding is half-saturated. High values mean weaker binding, low ones tighter binding. B1: the Kd in assay [1] came to 8 nM; in assay [2], 14.2 nM; in assay [3], 5.5 nM; in assay [4], 104 nM.
